# What was measured:
# [1] = biological target: Type I IFN receptor (IFNAR1 and IFNAR2) on HEK-Blue 293 reporter cells (UniProt P17181); experiment: cell-based or functional assay
# [2] = biological target: Type II IFN receptor (IFNGR1 and IFNGR2) on HEK-Blue 293 reporter cells (UniProt P15260); experiment: cell-based or functional assay
# Type II IFN receptor (IFNGR1 and IFNGR2) on HEK-Blue 293 reporter cells, sequence (P15260 18-489 limits assumed, chain 1 of 2): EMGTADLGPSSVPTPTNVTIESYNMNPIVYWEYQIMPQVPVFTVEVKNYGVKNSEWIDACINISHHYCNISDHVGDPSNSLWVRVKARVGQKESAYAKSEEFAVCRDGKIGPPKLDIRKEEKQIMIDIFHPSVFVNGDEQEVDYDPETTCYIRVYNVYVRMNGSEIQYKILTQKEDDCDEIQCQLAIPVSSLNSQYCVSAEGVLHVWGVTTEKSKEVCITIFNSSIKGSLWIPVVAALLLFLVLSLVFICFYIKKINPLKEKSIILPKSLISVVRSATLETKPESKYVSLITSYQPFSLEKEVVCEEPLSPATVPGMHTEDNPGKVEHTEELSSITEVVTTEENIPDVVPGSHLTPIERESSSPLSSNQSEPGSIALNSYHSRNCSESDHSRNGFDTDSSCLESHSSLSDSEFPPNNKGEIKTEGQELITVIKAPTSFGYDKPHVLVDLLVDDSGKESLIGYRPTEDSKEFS
# Type II IFN receptor (IFNGR1 and IFNGR2) on HEK-Blue 293 reporter cells, sequence (P38484 22-337 limits assumed, chain 2 of 2, further chain): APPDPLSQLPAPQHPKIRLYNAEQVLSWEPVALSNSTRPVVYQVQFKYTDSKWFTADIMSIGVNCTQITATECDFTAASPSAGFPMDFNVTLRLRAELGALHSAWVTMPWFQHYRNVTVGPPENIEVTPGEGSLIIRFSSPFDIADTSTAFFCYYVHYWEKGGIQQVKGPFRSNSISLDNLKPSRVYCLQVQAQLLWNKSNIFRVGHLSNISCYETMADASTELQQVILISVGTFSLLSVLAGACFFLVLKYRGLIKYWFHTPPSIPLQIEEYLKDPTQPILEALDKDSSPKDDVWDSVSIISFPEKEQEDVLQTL
# Type I IFN receptor (IFNAR1 and IFNAR2) on HEK-Blue 293 reporter cells, sequence (P17181 28-557 limits assumed, chain 1 of 2): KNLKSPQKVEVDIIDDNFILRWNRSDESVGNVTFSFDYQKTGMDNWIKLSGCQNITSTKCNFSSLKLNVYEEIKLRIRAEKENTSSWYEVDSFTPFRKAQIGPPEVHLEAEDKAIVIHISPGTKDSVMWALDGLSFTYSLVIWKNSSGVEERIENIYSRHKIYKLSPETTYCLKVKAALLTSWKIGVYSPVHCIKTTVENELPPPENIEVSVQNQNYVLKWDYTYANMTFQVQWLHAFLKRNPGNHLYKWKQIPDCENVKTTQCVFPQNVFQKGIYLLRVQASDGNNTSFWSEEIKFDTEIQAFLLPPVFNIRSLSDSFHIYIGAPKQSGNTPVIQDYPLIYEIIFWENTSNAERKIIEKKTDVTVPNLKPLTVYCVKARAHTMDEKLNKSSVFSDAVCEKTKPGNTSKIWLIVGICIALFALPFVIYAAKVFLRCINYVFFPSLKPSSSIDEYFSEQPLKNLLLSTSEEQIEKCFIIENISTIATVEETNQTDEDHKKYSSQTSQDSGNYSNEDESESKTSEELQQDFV
# Type I IFN receptor (IFNAR1 and IFNAR2) on HEK-Blue 293 reporter cells, sequence (P48551 27-515 limits assumed, chain 2 of 2, further chain): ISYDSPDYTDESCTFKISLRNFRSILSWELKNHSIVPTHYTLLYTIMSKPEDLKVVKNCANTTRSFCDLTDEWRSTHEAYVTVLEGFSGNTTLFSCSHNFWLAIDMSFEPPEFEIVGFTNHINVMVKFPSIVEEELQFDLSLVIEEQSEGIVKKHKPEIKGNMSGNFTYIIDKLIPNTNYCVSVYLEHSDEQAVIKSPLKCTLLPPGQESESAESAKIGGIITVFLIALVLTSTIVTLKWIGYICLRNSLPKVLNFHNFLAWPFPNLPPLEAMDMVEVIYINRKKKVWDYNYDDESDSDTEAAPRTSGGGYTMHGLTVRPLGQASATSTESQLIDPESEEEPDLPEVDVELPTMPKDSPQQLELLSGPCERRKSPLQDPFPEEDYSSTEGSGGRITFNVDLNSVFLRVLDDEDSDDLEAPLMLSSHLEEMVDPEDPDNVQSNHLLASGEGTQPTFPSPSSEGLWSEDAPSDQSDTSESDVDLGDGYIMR
Substance,"EC50 of SEAP reporter response, HEK-Blue IFN reporter cells [1]","MHC I (HLA I) expression, MFI by FACS against untreated 293T cells (fold increase) [1]","EC50 of SEAP reporter response, HEK-Blue IFN reporter cells [2]"
soluble IFNβ (from UniProt P01574 22-187) (ligand),0.9 pM,9,–
soluble IFNγ (from UniProt P01579 24-166) (ligand),–,–,7.1 pM
